Measured values published in patent US20130123462A1 (INDIANA UNIVERSITY RESEARCH AND TECHNOLOGY, published 2013).
Read-outs that look alike come from different tables or passages of the source. Bridges are numbered along the chain shown (N, C = ends). Where no end group is shown, it is not given here. [ ]: non-standard residue; d: D form. PhLac = O=C(O)[C@@H](O)Cc1ccccc1

B1: [E9, E16K20(lactam), D28]G(4~29) (peptide)
peptide: GTFTSEYSKYLDERRAKDFVQWLMDT-NH2
modifications: lactam 13-17; N-terminus assumed
SMILES: CSCC[C@H](NC(=O)[C@H](CC(C)C)NC(=O)[C@H](Cc1c[nH]c2ccccc12)NC(=O)[C@H](CCC(N)=O)NC(=O)[C@@H](NC(=O)[C@H](Cc1ccccc1)NC(=O)[C@H](CC(=O)O)NC(=O)[C@@H]1CCCCNC(=O)CC[C@H](NC(=O)[C@H](CC(=O)O)NC(=O)[C@H](CC(C)C)NC(=O)[C@H](Cc2ccc(O)cc2)NC(=O)[C@H](CCCCN)NC(=O)[C@H](CO)NC(=O)[C@H](Cc2ccc(O)cc2)NC(=O)[C@H](CCC(=O)O)NC(=O)[C@H](CO)NC(=O)[C@@H](NC(=O)[C@H](Cc2ccccc2)NC(=O)[C@@H](NC(=O)CN)[C@@H](C)O)[C@@H](C)O)C(=O)N[C@@H](CCCNC(=N)N)C(=O)N[C@@H](CCCNC(=N)N)C(=O)N[C@@H](C)C(=O)N1)C(C)C)C(=O)N[C@@H](CC(=O)O)C(=O)N[C@H](C(N)=O)[C@@H](C)O
B2: [PLA6, D9, E16, E24K28(lactam)]G(6~29) (peptide)
peptide: [PhLac]TSDYSKYLDERRAQDFVEWLMKT-NH2
modifications: lactam 19-23; N-terminus assumed
SMILES: CSCC[C@@H]1NC(=O)[C@H](CC(C)C)NC(=O)[C@H](Cc2c[nH]c3ccccc23)NC(=O)[C@@H](NC(=O)[C@@H](NC(=O)[C@H](Cc2ccccc2)NC(=O)[C@H](CC(=O)O)NC(=O)[C@H](CCC(N)=O)NC(=O)[C@H](C)NC(=O)[C@H](CCCNC(=N)N)NC(=O)[C@H](CCCNC(=N)N)NC(=O)[C@H](CCC(=O)O)NC(=O)[C@H](CC(=O)O)NC(=O)[C@H](CC(C)C)NC(=O)[C@H](Cc2ccc(O)cc2)NC(=O)[C@H](CCCCN)NC(=O)[C@H](CO)NC(=O)[C@H](Cc2ccc(O)cc2)NC(=O)[C@H](CC(=O)O)NC(=O)[C@H](CO)NC(=O)[C@@H](NC(=O)[C@@H](O)Cc2ccccc2)[C@@H](C)O)C(C)C)CCC(=O)NCCCC[C@@H](C(=O)N[C@H](C(N)=O)[C@@H](C)O)NC1=O
B3: [A2E3, E16K20(Lactam), D28]G(1~29) (peptide)
peptide: HAEGTFTSEYSKYLDERRAKDFVQWLMDT-NH2
modifications: lactam 16-20; N-terminus assumed
SMILES: CSCC[C@H](NC(=O)[C@H](CC(C)C)NC(=O)[C@H](Cc1c[nH]c2ccccc12)NC(=O)[C@H](CCC(N)=O)NC(=O)[C@@H](NC(=O)[C@H](Cc1ccccc1)NC(=O)[C@H](CC(=O)O)NC(=O)[C@@H]1CCCCNC(=O)CC[C@H](NC(=O)[C@H](CC(=O)O)NC(=O)[C@H](CC(C)C)NC(=O)[C@H](Cc2ccc(O)cc2)NC(=O)[C@H](CCCCN)NC(=O)[C@H](CO)NC(=O)[C@H](Cc2ccc(O)cc2)NC(=O)[C@H](CCC(=O)O)NC(=O)[C@H](CO)NC(=O)[C@@H](NC(=O)[C@H](Cc2ccccc2)NC(=O)[C@@H](NC(=O)CNC(=O)[C@H](CCC(=O)O)NC(=O)[C@H](C)NC(=O)[C@@H](N)Cc2c[nH]cn2)[C@@H](C)O)[C@@H](C)O)C(=O)N[C@@H](CCCNC(=N)N)C(=O)N[C@@H](CCCNC(=N)N)C(=O)N[C@@H](C)C(=O)N1)C(C)C)C(=O)N[C@@H](CC(=O)O)C(=O)N[C@H](C(N)=O)[C@@H](C)O
B4: [PLA6, D9, E16, K20E24(Lactam), D28]G(6-29) (peptide)
peptide: [PhLac]TSDYSKYLDERRAKDFVEWLMDT-NH2
modifications: lactam 15-19; N-terminus assumed
SMILES: CSCC[C@H](NC(=O)[C@H](CC(C)C)NC(=O)[C@H](Cc1c[nH]c2ccccc12)NC(=O)[C@@H]1CCC(=O)NCCCC[C@H](NC(=O)[C@H](C)NC(=O)[C@H](CCCNC(=N)N)NC(=O)[C@H](CCCNC(=N)N)NC(=O)[C@H](CCC(=O)O)NC(=O)[C@H](CC(=O)O)NC(=O)[C@H](CC(C)C)NC(=O)[C@H](Cc2ccc(O)cc2)NC(=O)[C@H](CCCCN)NC(=O)[C@H](CO)NC(=O)[C@H](Cc2ccc(O)cc2)NC(=O)[C@H](CC(=O)O)NC(=O)[C@H](CO)NC(=O)[C@@H](NC(=O)[C@@H](O)Cc2ccccc2)[C@@H](C)O)C(=O)N[C@@H](CC(=O)O)C(=O)N[C@@H](Cc2ccccc2)C(=O)N[C@@H](C(C)C)C(=O)N1)C(=O)N[C@@H](CC(=O)O)C(=O)N[C@H](C(N)=O)[C@@H](C)O
B5: [PLA6, D9, K12E16(Lactam), D28]G(6-29) (peptide)
peptide: [PhLac]TSDYSKYLDERRAQDFVQWLMDT-NH2
modifications: lactam 7-11; N-terminus assumed
SMILES: CSCC[C@H](NC(=O)[C@H](CC(C)C)NC(=O)[C@H](Cc1c[nH]c2ccccc12)NC(=O)[C@H](CCC(N)=O)NC(=O)[C@@H](NC(=O)[C@H](Cc1ccccc1)NC(=O)[C@H](CC(=O)O)NC(=O)[C@H](CCC(N)=O)NC(=O)[C@H](C)NC(=O)[C@H](CCCNC(=N)N)NC(=O)[C@H](CCCNC(=N)N)NC(=O)[C@@H]1CCC(=O)NCCCC[C@H](NC(=O)[C@H](CO)NC(=O)[C@H](Cc2ccc(O)cc2)NC(=O)[C@H](CC(=O)O)NC(=O)[C@H](CO)NC(=O)[C@@H](NC(=O)[C@@H](O)Cc2ccccc2)[C@@H](C)O)C(=O)N[C@@H](Cc2ccc(O)cc2)C(=O)N[C@@H](CC(C)C)C(=O)N[C@@H](CC(=O)O)C(=O)N1)C(C)C)C(=O)N[C@@H](CC(=O)O)C(=O)N[C@H](C(N)=O)[C@@H](C)O

How the values were obtained:
Experiment in all cases: cell-based or functional assay
GLP-1 receptor [1] = biological target: T1, GLP-1 receptor (UniProt P43220 24-463, limits assumed)
GLP-1 receptor [2] = biological target: T1, GLP-1 receptor; remark: listed apart in the source
glucagon receptor [3] = biological target: T2, glucagon receptor (UniProt P47871 26-477, limits assumed)
T2 sequence (P47871 26-477 limits assumed): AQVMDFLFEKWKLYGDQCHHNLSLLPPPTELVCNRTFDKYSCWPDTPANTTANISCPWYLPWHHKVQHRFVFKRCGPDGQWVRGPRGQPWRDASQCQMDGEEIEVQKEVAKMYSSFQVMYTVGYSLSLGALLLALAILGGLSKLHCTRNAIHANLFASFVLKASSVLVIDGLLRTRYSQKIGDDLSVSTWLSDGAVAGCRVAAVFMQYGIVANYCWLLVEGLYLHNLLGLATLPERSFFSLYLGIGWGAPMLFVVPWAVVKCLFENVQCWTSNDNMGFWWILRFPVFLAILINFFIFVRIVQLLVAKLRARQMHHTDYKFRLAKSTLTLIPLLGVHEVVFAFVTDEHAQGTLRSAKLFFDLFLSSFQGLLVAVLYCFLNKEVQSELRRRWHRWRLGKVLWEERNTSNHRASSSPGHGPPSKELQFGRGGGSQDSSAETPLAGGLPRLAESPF

glucagon receptor [4] = biological target: T2, glucagon receptor; remark: listed apart in the source
glucagon receptor [5] = biological target: T2, glucagon receptor; remark: listed apart in the source
GLP-1 receptor [6] = biological target: T1, GLP-1 receptor; remark: listed apart in the source
Target sequence in this assay (P43220 24-463 limits assumed): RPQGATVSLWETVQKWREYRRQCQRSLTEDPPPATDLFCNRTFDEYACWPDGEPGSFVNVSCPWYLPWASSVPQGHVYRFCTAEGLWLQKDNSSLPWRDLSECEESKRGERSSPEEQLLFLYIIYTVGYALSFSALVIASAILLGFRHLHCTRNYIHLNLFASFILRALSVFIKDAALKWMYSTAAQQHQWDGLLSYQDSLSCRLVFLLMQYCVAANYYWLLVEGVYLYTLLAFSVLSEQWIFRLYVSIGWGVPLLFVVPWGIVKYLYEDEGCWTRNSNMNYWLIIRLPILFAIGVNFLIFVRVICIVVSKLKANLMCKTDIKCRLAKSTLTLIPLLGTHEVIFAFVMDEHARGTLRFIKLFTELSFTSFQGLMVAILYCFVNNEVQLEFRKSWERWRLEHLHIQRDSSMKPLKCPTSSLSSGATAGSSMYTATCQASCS

Binder	GLP-1 EC50 (GLP-1 receptor [1]) [nM]	Glucagon IC50 (glucagon receptor [3]) [nM]	Glu IC50 (glucagon receptor [5]) [nM]	further results
HSQGTFTSDYARYLDARRAREFIKWLVRGRG [ANK2 (Bayer peptide)]	0.28			
FTSDYSKYLDSRRAQDFVQWLMDT (first residue is phenyl lactic acid (PLA)) [PLA 6, D9, D28 glucagon D9(6-29) analog (Table 15, peptide 7)]				GLP-1 EC50 (GLP-1 receptor [2]): ~700 nM
B1	151	10 to 30		
B2	289	22		
[PhLac]TSDYSKYLDERRAKDFVQWLMDT-NH2 (lactam 11-15) [[PLA6, D9, E16K20(lactam), D28]G(6-29)]		10 to 30		Glucagon IC50 (glucagon receptor [4]): 6 nM; GLP-1 EC50 (GLP-1 receptor [2]): 4 nM
[PhLac]TSEYSKYLDERRAQDFVQWLMNTGPSSGAPPPS (lactam 7-11; not fully specified) [[PLA6, E9, K12E16(Lactam)] Cex glucagon(6-39) (Table 13, peptide 5)]			72	GLP-1 EC50 (GLP-1 receptor [6]): 6 nM
B3	0.2			Glucagon IC50 (PA = partial antagonist) (glucagon receptor [3]): 130 nM
B4	239	74		
B5	177	63		Glucagon IC50 (glucagon receptor [4]): 13 nM; GLP-1 EC50 (GLP-1 receptor [2]): 21 nM
AEGTFTSEYSKYLDERRAKDFVQWLMDT-NH2 (lactam 15-19) [[A2E3, E16K20(Lactam), D28]G(2~29)]		63		
FTSDYSKYLDERRAQDFVQWLMNTGPSSGAPPPS (lactam 7-11; not fully specified) [D9, K12E16(Lactam) Cex glucagon(6-39) (Table 13, peptide 4)]			828	GLP-1 EC50 (column without a head in this part of Table 15) (GLP-1 receptor [2]): 18 nM; GLP-1 EC50 (GLP-1 receptor [6]): 119 nM
FTSEYSKYLDERRAKDFVQWLMNTGPSSGAPPPS (lactam 11-15) [E9, E16K20(lactam) Cex glucagon(6-39) (Table 13, peptide 3)]			42	GLP-1 EC50 (GLP-1 receptor [6]): 36 nM
FTSEYSKYLDERRAQDFVQWLMNTGPSSGAPPPS (lactam 7-11) [E9, K12E16(lactam) Cex glucagon(6-39) (Table 13, peptide 2)]			2010	GLP-1 EC50 (GLP-1 receptor [6]): 63 nM
FTSEYSKYLDERRAQDFVQWLMNTGPSSGAPPPS [E9, K12, E16 Cex glucagon(6-39) (Table 13, peptide 1)]			762	
